# Test results: IntAct's records for PubMed 17174311
# B1: Serine/threonine-protein kinase PLK4 (Mus musculus), Q64702 (parent)
# chain: MAACIGERIEDFKVGNLLGKGSFAGVYRAESIHTGLEVAIKMIDKKAMYKAGMVQRVQNEVKIHCQLKHPSVLELYNYFEDNNYVYLVLEMCHNGEMNRYLKNRMKPFSEREARHFMHQIITGMLYLHSHGILHRDLTLSNILLTRNMNIKIADFGLATQLNMPHEKHYTLCGTPNYISPEIATRSAHGLESDIWSLGCMFYTLLIGRPPFDTDTVKNTLNKVVLADYEMPAFLSREAQDLIHQLLRRNPADRLSLSSVLDHPFMSRNPSPKSKDVGTVEDSMDSGHATLSTTITASSGTSLSGSLLDRRLLVGQPLPNKITVFQKNKNSSDFSSGDGSNFCTQWGNPEQEANSRGRGRVIEDAEERPHSRYLRRAHSSDRASPSNQSRAKTYSVERCHSVEMLSKPRRSLDENQHSSNHHCLGKTPFPFADQTPQMEMVQQWFGNLQMNAHLGETNEHHTVSPNRDFQDYPDLQDTLRNAWTDTRASKNADTSANVHAVKQLSAMKYMSAHHHKPEVMPQEPGLHPHSEQSKNRSMESTLGYQKPTLRSITSPLIAHRLKPIRQKTKKAVVSILDSEEVCVELLRECASEGYVKEVLQISSDGTMITVYYPNDGRGFPLADRPPLPTDNISRYSFDNLPEKYWRKYQYASRFIQLVRSKTPKITYFTRYAKCILMENSPGADFEVWFYDGAKIHKTENLIHIIEKTGISYNLKNENEVTSLKEEVKVYMDHANEGHRICLSLESVISEEEKRSRGSSFFPIIVGRKPGNTSSPKALSAPPVDPSCCKGEQASASRLSVNSAAFPTQSPGLSPSTVTVEGLGHTATATGTGVSSSLPKSAQLLKSVFVKNVGWATQLTSGAVWVQFNDGSQLVVQAGVSSISYTSPDGQTTRYGENEKLPEYIKQKLQCLSSILLMFSNPTPNFQ
# Variants of: B1
# Conditions: with MBP
row,effect of a mutation on the interaction,Variant
1,disrupting interaction,D154N

# Variants of: B1
# Conditions: with ccnb3_human CCNB3, Q8WWL7
# Sequence of ccnb3_human CCNB3, Q8WWL7 (Q8WWL7 whole entry): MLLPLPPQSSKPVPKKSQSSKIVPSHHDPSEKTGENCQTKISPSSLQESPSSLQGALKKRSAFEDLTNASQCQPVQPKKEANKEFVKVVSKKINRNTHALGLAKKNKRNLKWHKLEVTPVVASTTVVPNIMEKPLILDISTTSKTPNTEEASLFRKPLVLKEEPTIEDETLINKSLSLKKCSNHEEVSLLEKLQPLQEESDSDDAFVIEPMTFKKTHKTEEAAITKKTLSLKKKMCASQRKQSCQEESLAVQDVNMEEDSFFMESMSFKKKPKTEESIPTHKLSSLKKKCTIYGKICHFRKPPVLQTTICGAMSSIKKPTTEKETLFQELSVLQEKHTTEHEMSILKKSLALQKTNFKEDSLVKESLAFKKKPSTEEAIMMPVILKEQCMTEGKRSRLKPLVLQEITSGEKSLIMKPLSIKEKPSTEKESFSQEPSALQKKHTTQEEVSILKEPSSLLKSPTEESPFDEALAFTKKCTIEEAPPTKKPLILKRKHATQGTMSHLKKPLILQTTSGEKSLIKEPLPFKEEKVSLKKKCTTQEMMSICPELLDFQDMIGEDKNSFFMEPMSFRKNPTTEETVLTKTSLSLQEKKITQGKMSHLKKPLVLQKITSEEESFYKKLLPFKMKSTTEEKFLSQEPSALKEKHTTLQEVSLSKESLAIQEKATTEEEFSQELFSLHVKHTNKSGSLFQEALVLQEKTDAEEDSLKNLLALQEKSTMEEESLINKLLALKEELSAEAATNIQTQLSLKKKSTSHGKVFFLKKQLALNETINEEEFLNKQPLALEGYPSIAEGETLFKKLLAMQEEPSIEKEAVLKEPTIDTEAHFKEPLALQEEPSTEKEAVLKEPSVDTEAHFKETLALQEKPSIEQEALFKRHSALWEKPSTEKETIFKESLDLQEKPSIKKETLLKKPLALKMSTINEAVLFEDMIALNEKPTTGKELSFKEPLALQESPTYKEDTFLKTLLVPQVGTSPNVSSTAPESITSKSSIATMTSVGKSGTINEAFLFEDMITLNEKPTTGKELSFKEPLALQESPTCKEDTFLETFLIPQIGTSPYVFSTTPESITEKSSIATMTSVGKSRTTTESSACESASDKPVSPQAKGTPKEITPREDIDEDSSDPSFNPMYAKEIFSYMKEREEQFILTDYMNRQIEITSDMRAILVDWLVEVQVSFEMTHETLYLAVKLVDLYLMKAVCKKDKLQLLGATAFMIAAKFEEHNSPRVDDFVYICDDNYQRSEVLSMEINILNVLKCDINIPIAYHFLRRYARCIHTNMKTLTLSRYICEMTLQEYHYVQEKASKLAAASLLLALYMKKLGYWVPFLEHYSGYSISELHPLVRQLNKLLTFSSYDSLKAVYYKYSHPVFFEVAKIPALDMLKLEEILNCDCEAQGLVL
row,effect of a mutation on the interaction,Variant
1,disrupting interaction,D154N
